Assay: yeast display, Sf9 membrane polyspecificity reagent, FACS + sequencing; frameworks hold sequencing errors
Outline: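 Galactose-induced (36–48 hours) yeast carrying a synthetic nanobody display library were exposed to 10% biotinylated, detergent-solubilized Sf9 membrane reagent at 4 °C for 1 hour. FACS followed streptavidin microbead enrichment, using low and high (top ~1%) gates for expression (anti-HA) and reagent binding (streptavidin). Colony PCR, MiSeq 2 × 250 sequencing and CDR-length filtering followed. Labels for polyreactivity reflect the gate of origin.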

| Sequence | polyreactivity (PSR sort gate) |
| --- | --- |
| QVQLVESGGGLVQAGGSLSLSCAASGLTFVDNAMGWYRQAPWKERELVAAISYNGGSTYYADSVKGRFTISRDHAKTTVYLQMNSLKPEDTAVYSCAADIYVGRYGDMDFWGQGTQVTVSS | low polyreactivity |
| QVQLVESGGGLVQAGGSLRLSCAASGRIFTYNAMGWYRQAPGKERELVAAITYRGSSTYYADSVKGRFTISRDNAKNTVYLQMNSLKPEDTAVYYCAAPRLIRFVTYYSWGQGTQVTVSS | high polyreactivity |
| QVQLVESGGGLVQAGGSLRLSCAASGRTFVPYAMGWYRQAPGKERELVATNNRSGGTTYYADSVKGRFTISRDNAKNTVYLQMNSLKPEDTAVYYCNKSPYYTVWSTRGNQFSRFYYWGQGTQVTVSS | high polyreactivity |
| QVQLVESGGGLVQAGGSLRLSCAASGRTFRRYAMGWYRQAPGKERELVAVISGGGTYYADSVKGRFTISRDNAKNTVYLQMNSLKPEDTAVYYCATDSYSSLYGYDYWGQGTQVTVSS | high polyreactivity |
| QFQLVESGGGLVQAGGSLRLSCAASGFIIKFYAMGLYRQAPGKERELVATITFSSGTTYYADSVKGRFTISRDTAKNTVYLQLNSLKPEDTAVYYCAAERGVDDSARNGDYDYWGQGTQVTVSS | low polyreactivity |
| QVQLVESGGGLVQAGGSLRLSCAASGSTFTVNAMGLYRQAPGKERELVAAINWSGGSTYYADSVKGRFTISRDHAKNTVYLQMNSLKPEDTAVYYCNKDREPYGYWSFDYWGQGTQVTLSS | low polyreactivity |
| QVQLVESGGGLVQAGGSLRLSCAASGLTCASYVMGWYRQAPGKERELVAAISSSGDSTYYADSVKGRFTISRDNAKNTFYLEMNSLKPEDTAVYYCASNDYVWGQGTQVTVSS | low polyreactivity |
| QVQLVESGGGLVQAGGSLRLSCAASGTIFSRNAMGWYRQAPGKERELVAAINARGGSTYYADSVKGRFTISRDNAKNTVYLQMNSLKPEDTAVYYCAARYGVGRADYYWGQGTQVTVSS | high polyreactivity |
| QVQLVESGGGLLQAGVSLRLSCAASGRIYSKYAMGRYRQAPGKERELVAAITYSGGSTYYADSVKGRFTISRDNAKNTVYLQMNSLKPEDSAVYYCAAVHCTSYSKWFGYWGQGTQVSVSS | low polyreactivity |
| QFQLVESGGGLVQAGGSLRLSCAASGIFVGYTMGWYRQAPGKEREFVAAIRWTDGSTYYADSVKGRFTISRDNAKNTVYLQMNSLKPEDTAVYYCAADSHDPARYYYGDEVEDEYWGQGTQVTVSS | low polyreactivity |
| QVQLVETGGGLVQAGGSLRLSCAASGSTFRFYVMGWYRQAPGKERELVAAISTSGGSTYYADSVKGRFTISRDTAKNTVYLQMNSLKPEDTAVYYCAADLIASLRPYYQYDYWGQGTQVTVSS | low polyreactivity |
| QVQLVESGGGLVQAGGSLRLSCAASGRIFYRYAMGWYRQAPGKERELVAGISNSGGSTYYADSVKGRFTISRDNAKNTVYLQMNSLKPADTAVYYCATGPSYRYDIGGGRIRYYYWGQGTQVSVSS | high polyreactivity |
| QVQLVESGGGLVQAGGSLRLSCAASGFTFSFYAMGCDRQAPGKERELVATISSGGSTTYADSVKGRFTISRDNANNTVYLHMNSLKPEDTAVYYCAARYGRVRNYRYDYWGKGTQVTVSS | high polyreactivity |
| QVQLVESGGGLVQAGGSLRLSCAASGRTFYYNAMGWYRQAPGKERELVAAISWSGGSTYYADSVKGRFTISRDNAKNTVYLQMNSLKPEDTAVYYCAADYEYSRAYGYDYWGQGTQVTVSL | low polyreactivity |
| QVKLVESGGGLVQAGGSLRLSLQPPDSPSTTMLWDGIDRRLAKKGSWLPVFLPSGGTTYADSVKGRFTISRDNAKYTVYLQMNSLKPEDTAVYYCNADLSDVAVTDHDYWGQVTQVTVSS | low polyreactivity |
| QVQLVESGGGLVQAGGSLRLSCAASGRTFAPYAMGWYRQAPGKERELVAAIRWTGTSTYYADSVKGRFTISRDNAKNTVYLQMNSLKPEDTAVYYCNADLYNREGWGQGTQVTVSS | high polyreactivity |
| QVQLVESGGGLFQAGGSLRLSCAASGSTFPYNAMGGYRQAPGKERELVAAINSGATTYYADSVKGRFTISRDNAKNTVYLQMNSLKPEDTAVYYCAAEGYASSSEYDYWGQGTQVTVSS | low polyreactivity |
| QVQLVESGGGLVQAGGSLRLSCSASGTTFRYNAMGRYRQAPGKERQLVAAITSGGTTNYADSVKGRFTISRDNAKNTVYLQMNSLKPEDTAVYYCAKKRPGFLRYGSIGEFQYDYWGQGTQVTVSS | low polyreactivity |
| QVQLVESGGGLDQAGGSLRLSCAASGSTFDVYAMGRYRQAPGKVRELVAAISRSGGSTYYADSVKGRFTISRDYAKNNVYLQMYSLKPEDTAVYYCNARLARWGSYEYNYWGQGTQVTVSS | low polyreactivity |
| QVQLVESGGGLVQAGGSLRLSCAASGSTFAFNAMGWYRQAPGKERELVAAIYSDGSTDYADSVKGRFSISRDNAKNTVYLQMNSLKPEDPAVYYCADDWGWRYVLPVGWFRYGYWGQGTQVTVSS | low polyreactivity |
| QVQLVESGGGLVQAGGSLRLSCAASGIIIGANAMGWYRQAPWKERELLAAITSGGSTYYADSVKGRFTISRDNAKNTVYLQMNSLKPEDTAVYYCAADVFWLYSFTIYDYWGQGTQVTVSS | high polyreactivity |
| QVQLVESGGGLVQAGGSLRLSCAASGFIFSRNALGWYRQAPGKERELVAVISTRGGSTYYADSVKGRFTISRDNAKNTVYLQMNSLKPEDTAVYYCAARRTRGYEYWGQGTQVTVSS | high polyreactivity |

| Sequence | polyreactivity (PSR sort gate) |
| --- | --- |
| QVQLVESGGGLVQAGGSLRLSCAASGSTFRYYTMGWYRQAPGKERELVARISWSGGSTYYAYSVKGRFTISRDNAKYTVYLQMNSLKPEDTAVYYCNAVLFYFQTRDYWGQGTQVTVSS | high polyreactivity |
| QVQLVESGGGLVQAGGSLRLSCAASGIIFPRNAMGWSREAPGKERELVAAITSGDTTNYADSVKGRFTISRDNAKKTVYLQMNSQKPADTAVYYCAADQFQGNSGFEYWGQGTQVTVSS | low polyreactivity |
| QVQLVESGGGLVQAGGSLRLSCAASGSTFSWNTMGWYRQAPGKERELVADIRTSGGGTYYADSVKGRFTISRDNAKNSVYLQMNSLKPEDTAVYYCNGDPKWEMVSWGQGTQVTVSS | low polyreactivity |
| QVQLVESGGGLVQAGGSLRLSCAASGFIFTVYAMGWSRQAPGKERELVAAISRGGGSTSYADSVKGRFTISRDNAKNTVYLQMNSLKPEDTAVYYCNAKYKYSRGYDYWGQGTQVTVSS | high polyreactivity |
| QVQLVESGGGLVQAGGSLSLICAASGSTFNLYPMGGYRKAPGKERELVAAISRGGSTNYADSVKGRFTISRDNAKNTVYLQMNSLIPEDTAVYYCAARSWYDRYPYYSWGQGTQLTVSS | high polyreactivity |
| QVQLVESGGGLVQAGGSLRLSCAASGITFHEYAMVWYRQAPGKERELVAAISASGGTTYYADSVKGRFTISRDNAKNTVYLQMNSLKPEDTAVYYCAALPLYITEYGYWGQGTQVTVSS | high polyreactivity |
| QVHLVESGGGLVQAGGSLRLSCAASGSIYVNTMGWYRQAPGKDRELVAGISRSTGRTYYADSVKGRFTISRDNAKNTVYLQMNSLKPEDTAVYYCNTVPWRRWGYDYWGQGTQVTVSS | high polyreactivity |
| QVQLEESGGGLVQAGGSLRLSCAASGYIFDYNAMGWYRQAPGKERELVAVISRGGRTYYADSVKGRFTISRDNAKNTVYLQMNILKPEDTAVYYCAADRQSYPYDYWGQGTQVTVSS | high polyreactivity |
| QVQLVESGGGLVQAGGSLRLSCAASGRTFIINGMGWYRQAPGKERELVAAITTSGGSTYYADSVKGRFTISRDNAKNTVYLQMNSLKPEDTAVYSCAADVFSRKYLYGDYDYWGQGTQVTVSS | high polyreactivity |
| QLQLHESGGGLVQAGGSLRLSCAASGTISYAGPMGWYRQAPGKEREFVAGIGVGSNTNYADSVKGRYTIIRDNAKNTVYLQMNSLKPEDTAVYYCAVGGYAPLGRPYWGQGTQVTVSS | low polyreactivity |
| QVQLVESGGGLVQAGGSLRLSCAAYGRIFTSYVMGWYRQAPGKERELVAGINSGRRTNYADSVKGRFTISRDNAKNTVYLQMNSLKPEDTAVYYCAKAGYWYKAHYYWGQGTQVTVSS | high polyreactivity |
| QVQLVESGGGLVQAGGSLRLSCAASGFIFGSYTMGWYRQAPGKERELVAAITTGGSTNYADSVKGRFTISRDNAKNTVYLQMNSLKPEDTAVYYCAARTVGFYRYDYWGQGTQVTVSS | low polyreactivity |
| QVQLVESGGGLVQAGGSLRLSCAASGRIFLYNDMGWYRQAPGKERELVATITWNVTSTYYADSVKGRFTISRDNAKYTVYLQLNSLKPEDTAVYYCARGDHVGSAGYDYWGQGTQVTVSS | low polyreactivity |
| QVQLVESVGGLVQAGGSLRLSCAASGRIFYKNVMGWYRQAPRKERELVAAISTSTGRTYYADSVNGRFTISRDNAKNTVYLQMNSLKPEDTAVYYCNAVRGLTNGVLYRYDYWGQGTQVTVSS | high polyreactivity |
| QVQLVESGGGLVQAGGSLRLSCAASGRIFKWNAMGWYRQAPGKDRELVAAINLSTRSTYYADSVKGRFTISRDNAKNTVYLEMHSLKTVDTAVYYCAAVTYANYYYDAYYYWGQGSQVTVSS | high polyreactivity |
| QVQLVESGGGLVQAGGSLRLICAASGFIIYIYAMGWYRQAPGKERELVAAISRSGVGTYYADSVKGRFTISRDNAKNTVYLQMNSLKPEDTAVYYCARSRSGYRYDYWGQGTQVTVSS | high polyreactivity |
| QVQLEESGGGLVQEGGSLRLSCADSGFTLWLNAMGWYRQAPGKERELVAAITTSDDGTYYADSVKGRFTISRDNAKNSVYLQMNSMKPEDTAVYYCAADYYSVLYDYWVQGTQVTVSS | low polyreactivity |
| QVQLVESGGGLVQAGGSLRLSCAASGSTFSSYAMGWYRQAPGKERELVAAITSGTRTYYADSVKGRFTISRDNAKNTVYFQMNSLKPEDTAVYYCAAPTSSSGRYHRYYYWVQGTQVTVSS | high polyreactivity |
| QVQLVESGGGLVQAGGSLSLSCAASGRIIKFYAMGWYRQAPGKERELVARISRSGGRTYYSDSVKGRFTISRDNAKNTVYLQMNSLKPEDPAVYYCNADGDNRRDRYEYWGQGTQVTVSS | low polyreactivity |
| QVQLVESGGGLVQAGGSLRLSCAASGRTFKYNAMGWYRQAPGKERELVAAIRKSGTRTYYADSVKGRFTISRDNAKNTVYLQMNSLKPEDTAVYYCNRVGFDYWGQGTQVTVSS | low polyreactivity |
| QVQLVESGGGLVQAGGSLRLSCAASGGILSDYAMGWYRQAPWKERELVAAITISGGRTNYADSVKGRFTISRDNAKNTVYLQMNSLKPEDTAVYYCAAGFYPYYYWGQGTQVTVSS | low polyreactivity |

Source: the nanobody polyreactivity screen of Harvey et al. (2022)
